# B1: Quiescin sulfhydryl oxidase (QSOX) (enzyme)
# chain: APRSALYSPSDPLTLLQADTVRGAVLGSRSAWAVEFFASWCGHCIAFAPTWKALAEDVKAWRPALYLAALDCAEETNSAVCRDFNIPGFPTVRFFKAFTKNGSGAVFPVAGADVQTLRERLIDALESHHDTWPPACPPLEPAKLEEIDGFFARNNEEYLALIFEKGGSYLGREVALDLSQHKGVAVRRVLNTEANVVRKFGVTDFPSCYLLFRNGSVSRVPVLMESRSFYTAYLQRLSGLTREAAQTTVAPTTANKIAPTVWKLADRSKIYMADLESALHYILRIEVGRFPVLEGQRLVALKKFVAVLAKYFPGRPLVQNFLHSVNEWLKRQKRNKIPYSFFKTALDDRKEGAVLAKKVNWIGCQGSEPHFRGFPCSLWVLFHFLTVQAARQNVDHSQEAAKAKEVLPAIRGYVHYFFGCRDCASHFEQMAAASMHRVGSPNAAVLWLWSSHNRVNARLAGAPSEDPQFPKVQWPPRELCSACHNERLDVPVWDVEATLNFLKAHFSPSNIILDFPAAGSAARRDVQNVAAAPELAMGALELESRNSTLDPGKPEMMKSPTNTTPHVPAEGPELI
# How the values were obtained:
# [1] = molecular target: full-length recombinant bank vole prion protein with methionine at residue 109 (rBVPrP-109M) (bank vole (Myodes glareolus), UniProt Q8VHV5 23-231); assay: SPR; conditions: both partners purified
# [2] = molecular target: full-length recombinant bank vole prion protein with isoleucine at residue 109 (rBVPrP-109I) (bank vole (Myodes glareolus), UniProt Q8VHV5 23-231, 109I); assay: SPR; conditions: both partners purified
binder,measurement,setting,value
B1,Kd,[1],23 nM
same,Kd,[2],11 nM
